Source: patent publication US20160002331A1 (Pfizer, published 2016)
Changes are numbered by the printed parent chain. In names and notes the source's numbering stands.

Tests used:
[1] = molecular target: T1, full-length human Notch1 expressed on the cell surface (human, UniProt P46531 19-2555); assay: cell-based or functional assay
[2] = molecular target: T2, Notch1 receptor with L1575P mutation (HPB-ALL cells) (UniProt P46531 19-2555, limits assumed); assay: cell-based or functional assay
[3] = molecular target: Notch1 receptor with a 12 amino acid insertion at position 1595 (CCRF-CEM cells) (UniProt P46531 19-2555); assay: cell-based or functional assay
[4] = molecular target: T3, full-length mouse Notch1 expressed on the cell surface of U-2 OS cells (mouse, UniProt Q01705 19-2531); assay: cell-based or functional assay
[5] = molecular target: T1, full-length human Notch1 expressed on …; assay: cell-based or functional assay; remark: listed apart in the source
[6] = molecular target: T2, Notch1 receptor with L1575P mutation …; assay: cell-based or functional assay; remark: listed apart in the source
[7] = molecular target: T1, full-length human Notch1 expressed on …; assay: cell-based or functional assay; remark: listed apart in the source
[8] = molecular target: T1, full-length human Notch1 expressed on …; assay: competition ELISA on U-2 OS cells expressing full-length human Notch1; competitor 0.8 nM biotinylated rat 438
Experimental: (§1) In a similar manner as described for recombinant protein or cell based ELISAs, 96 well cell culture plates were either coated with Notch1 NRR-Avi_His protein (hi-bound co-Star plates), or seeded with full length Notch1 expressing U-2 OS cells (cell culture plate, Co-star), respectively.
(§2) After incubation for 2 hours, the plates were washed, as described above, and HRP-conjugated streptavidin (Southern Biotech) diluted 1:5000 in blocking buffer was applied. Incubation with streptavidin was allowed for 30 min before the plates were washed again and developed with TMB solution for 10 minutes. Developing reaction was stopped by adding 0.18M H₂SO₄ and absorbance at 450 nm was measured. Data plotting and analyses were performed with Microsoft Excel and Graphpad-Prizm software.

[9] = molecular target: T4, human Notch1 NRR_Avi_His recombinant protein (human, UniProt P46531 1434-1737); assay: SPR (Biacore T100), antibody captured by anti-human IgG-Fc, NRR_Avi_His as analyte, 1:1 Langmuir model
T4 construct: Secreted from CHO-PACE cells; cleaved at S1 into an N-terminal ~26 kDa half (LNR-A, B, C, HD1) and a C-terminal ~12 kDa half (HD2 and tag) that stay associated non-covalently; written here as one chain; also called recombinant human Notch1 NRR; human Notch1 NRR immunogen
T4 sequence: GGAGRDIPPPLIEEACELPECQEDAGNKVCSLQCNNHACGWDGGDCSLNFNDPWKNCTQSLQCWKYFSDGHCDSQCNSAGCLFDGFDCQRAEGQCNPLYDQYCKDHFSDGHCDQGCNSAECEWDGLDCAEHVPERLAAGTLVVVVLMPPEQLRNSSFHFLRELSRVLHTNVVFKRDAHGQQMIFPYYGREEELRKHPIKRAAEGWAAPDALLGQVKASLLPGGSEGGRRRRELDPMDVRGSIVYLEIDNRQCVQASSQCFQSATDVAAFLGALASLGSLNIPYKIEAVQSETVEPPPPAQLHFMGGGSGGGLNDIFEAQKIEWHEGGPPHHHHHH
Experimental: (§3) The kinetic constants of the anti-Notch1 NRR interactions were determined by surface plasmon resonance (Biacore® T100, Biacore Inc., Piscataway, N.J.). Flow cells of a CM5 chip were immobilized with approximately 10,000 Resonance Unit (RU) of anti-human IgG-Fc (Biacore®) in 10 mM Glycine, pH 5.0 at 10 μl/min for 600 seconds. […] Association of four concentrations of human Notch1 NRR_Avi_His recombinant protein (from 3.7-100 nM) and a zero concentration (running buffer) at 100 μl/min were recorded for 3 minutes in TBS with 1 mM CaCl₂. Dissociation of the complexes was measured for 10 minutes. The surface of the chip was regenerated by injecting 3M MgCl₂ with 3 mM EGTA for 60 seconds at 10 μl/min. Curves obtained after subtraction of the reference and buffer signals were fitted to a 1:1 Langmuir binding model with Biacore® T100 Evaluation Software (Biacore®).

[10] = molecular target: T3, full-length mouse Notch1 expressed on …; assay: cell-based ELISA, U-2 OS cells expressing full-length mouse Notch1
Experimental: (§4) Supernatants from clones displaying positive binding to immunogens in recombinant Notch1 NRR based ELISAs described above were then screened for cell surface Notch1 binding in a cell-based ELISA. U-2 OS cells stably overexpressing human or mouse full length Notch1 protein on cell surface were plated at 50,000 cells/well in 96 well plates (white opaque, BD/VWR) the day before ELISA assay. On the day of the ELISA, culture media were removed from wells and serially diluted (1:3 in blocking buffer) antibody solutions or hybridoma culture supernatants were applied to the plate. Plates were incubated at room temperature for 2 hours before being washed with PBS-Mg/Ca. HRP-conjugated secondary antibody was then applied and incubated with cells for 1 hour as described above for recombinant protein ELISA. Plates were washed with PBS-Mg/Ca before being developed with Pico-Chemiluminescent developing kit (Thermal Scientific), and chemiluminescence measurements were performed per manufacturer's instructions. Data plotting and analyses were performed with Microsoft Excel and Graphpad-Prizm software.

[11] = molecular target: T4, human Notch1 NRR_Avi_His recombinant …; assay: SPR (Biacore T100), ratio of KD to that of rat 438-hIgG1
Experimental: as §3

[12] = molecular target: T1, full-length human Notch1 expressed on …; assay: cell-based ELISA, U-2 OS cells expressing full-length human Notch1
Experimental: as §4

[13] = molecular target: T4, human Notch1 NRR_Avi_His recombinant …; assay: competition ELISA on coated human Notch1 NRR_Avi_His; competitor 0.8 nM biotinylated rat 438
Experimental: as §1, §2

[14] = molecular target: T3, full-length mouse Notch1 expressed on …; assay: cell-based or functional assay; remark: listed apart in the source
[15] = molecular target: T1, full-length human Notch1 expressed on …; assay: cell-based or functional assay; remark: listed apart in the source

T1 sequence (P46531 19-2555): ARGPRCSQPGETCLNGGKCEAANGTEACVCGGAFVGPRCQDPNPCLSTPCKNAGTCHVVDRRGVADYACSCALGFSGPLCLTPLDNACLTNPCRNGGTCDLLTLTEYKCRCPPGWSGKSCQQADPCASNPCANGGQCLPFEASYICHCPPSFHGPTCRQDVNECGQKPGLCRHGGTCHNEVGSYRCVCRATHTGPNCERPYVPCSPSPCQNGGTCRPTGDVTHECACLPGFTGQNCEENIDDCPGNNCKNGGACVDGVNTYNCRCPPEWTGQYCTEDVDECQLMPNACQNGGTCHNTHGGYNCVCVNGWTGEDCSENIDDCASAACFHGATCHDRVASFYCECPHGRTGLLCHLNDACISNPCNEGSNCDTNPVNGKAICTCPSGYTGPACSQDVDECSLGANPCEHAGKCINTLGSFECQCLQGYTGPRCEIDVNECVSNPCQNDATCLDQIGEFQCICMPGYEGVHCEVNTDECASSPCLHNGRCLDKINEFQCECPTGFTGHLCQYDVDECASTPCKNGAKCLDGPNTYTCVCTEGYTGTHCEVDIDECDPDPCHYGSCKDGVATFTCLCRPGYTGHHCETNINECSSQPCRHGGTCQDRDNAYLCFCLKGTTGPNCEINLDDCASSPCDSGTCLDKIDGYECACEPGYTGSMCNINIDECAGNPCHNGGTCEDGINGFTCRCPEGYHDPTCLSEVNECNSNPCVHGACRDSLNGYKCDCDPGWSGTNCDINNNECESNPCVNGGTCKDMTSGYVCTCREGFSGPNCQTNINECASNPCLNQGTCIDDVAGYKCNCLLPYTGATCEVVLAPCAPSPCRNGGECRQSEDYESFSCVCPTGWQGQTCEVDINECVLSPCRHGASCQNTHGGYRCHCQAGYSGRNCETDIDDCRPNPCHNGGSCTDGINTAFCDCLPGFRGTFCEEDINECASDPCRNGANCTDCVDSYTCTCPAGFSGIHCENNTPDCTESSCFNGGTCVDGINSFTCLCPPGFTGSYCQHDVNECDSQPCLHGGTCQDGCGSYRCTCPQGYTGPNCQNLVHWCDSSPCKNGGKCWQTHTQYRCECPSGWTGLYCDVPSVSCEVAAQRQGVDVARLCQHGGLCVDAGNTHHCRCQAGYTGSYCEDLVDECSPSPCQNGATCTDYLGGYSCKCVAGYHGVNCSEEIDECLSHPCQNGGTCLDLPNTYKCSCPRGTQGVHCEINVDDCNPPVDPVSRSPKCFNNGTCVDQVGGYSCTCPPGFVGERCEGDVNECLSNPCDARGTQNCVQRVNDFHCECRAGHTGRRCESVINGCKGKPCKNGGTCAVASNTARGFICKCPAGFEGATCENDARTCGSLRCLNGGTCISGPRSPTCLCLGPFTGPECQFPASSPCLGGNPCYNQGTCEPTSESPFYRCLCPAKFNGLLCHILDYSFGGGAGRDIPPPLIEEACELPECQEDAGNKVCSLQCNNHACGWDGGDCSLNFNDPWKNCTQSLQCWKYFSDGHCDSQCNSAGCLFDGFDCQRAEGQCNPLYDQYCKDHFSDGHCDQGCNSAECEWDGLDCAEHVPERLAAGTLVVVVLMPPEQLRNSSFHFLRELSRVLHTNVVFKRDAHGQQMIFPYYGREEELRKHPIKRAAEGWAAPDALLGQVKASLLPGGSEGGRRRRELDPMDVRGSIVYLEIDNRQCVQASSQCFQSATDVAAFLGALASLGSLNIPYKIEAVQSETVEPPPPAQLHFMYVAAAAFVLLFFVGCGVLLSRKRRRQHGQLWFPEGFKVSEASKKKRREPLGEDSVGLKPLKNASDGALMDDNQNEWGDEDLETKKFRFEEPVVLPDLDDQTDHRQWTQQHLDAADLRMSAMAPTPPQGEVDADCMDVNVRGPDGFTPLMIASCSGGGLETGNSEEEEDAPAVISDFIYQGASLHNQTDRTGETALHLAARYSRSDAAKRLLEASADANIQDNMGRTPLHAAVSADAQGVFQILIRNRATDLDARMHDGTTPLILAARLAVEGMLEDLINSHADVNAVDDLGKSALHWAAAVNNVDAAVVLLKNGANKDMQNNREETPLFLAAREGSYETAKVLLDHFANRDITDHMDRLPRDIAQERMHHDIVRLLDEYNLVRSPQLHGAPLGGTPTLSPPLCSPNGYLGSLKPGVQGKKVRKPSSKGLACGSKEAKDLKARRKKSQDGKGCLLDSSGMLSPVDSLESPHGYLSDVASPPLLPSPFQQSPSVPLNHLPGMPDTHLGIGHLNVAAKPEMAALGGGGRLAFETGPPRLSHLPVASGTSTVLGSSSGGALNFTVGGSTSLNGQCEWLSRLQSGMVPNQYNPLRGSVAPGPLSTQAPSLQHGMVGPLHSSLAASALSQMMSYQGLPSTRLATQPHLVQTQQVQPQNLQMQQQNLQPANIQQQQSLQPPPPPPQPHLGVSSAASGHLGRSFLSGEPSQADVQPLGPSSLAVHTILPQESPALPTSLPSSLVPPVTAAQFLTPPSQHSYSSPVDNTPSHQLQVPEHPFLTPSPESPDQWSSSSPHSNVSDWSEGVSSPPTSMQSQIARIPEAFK
Chain of Notch1 receptor with a 12 amino acid insertion at position 1595 (CCRF-CEM cells) (P46531 other isoform, or with tags, fused parts or gaps limits assumed): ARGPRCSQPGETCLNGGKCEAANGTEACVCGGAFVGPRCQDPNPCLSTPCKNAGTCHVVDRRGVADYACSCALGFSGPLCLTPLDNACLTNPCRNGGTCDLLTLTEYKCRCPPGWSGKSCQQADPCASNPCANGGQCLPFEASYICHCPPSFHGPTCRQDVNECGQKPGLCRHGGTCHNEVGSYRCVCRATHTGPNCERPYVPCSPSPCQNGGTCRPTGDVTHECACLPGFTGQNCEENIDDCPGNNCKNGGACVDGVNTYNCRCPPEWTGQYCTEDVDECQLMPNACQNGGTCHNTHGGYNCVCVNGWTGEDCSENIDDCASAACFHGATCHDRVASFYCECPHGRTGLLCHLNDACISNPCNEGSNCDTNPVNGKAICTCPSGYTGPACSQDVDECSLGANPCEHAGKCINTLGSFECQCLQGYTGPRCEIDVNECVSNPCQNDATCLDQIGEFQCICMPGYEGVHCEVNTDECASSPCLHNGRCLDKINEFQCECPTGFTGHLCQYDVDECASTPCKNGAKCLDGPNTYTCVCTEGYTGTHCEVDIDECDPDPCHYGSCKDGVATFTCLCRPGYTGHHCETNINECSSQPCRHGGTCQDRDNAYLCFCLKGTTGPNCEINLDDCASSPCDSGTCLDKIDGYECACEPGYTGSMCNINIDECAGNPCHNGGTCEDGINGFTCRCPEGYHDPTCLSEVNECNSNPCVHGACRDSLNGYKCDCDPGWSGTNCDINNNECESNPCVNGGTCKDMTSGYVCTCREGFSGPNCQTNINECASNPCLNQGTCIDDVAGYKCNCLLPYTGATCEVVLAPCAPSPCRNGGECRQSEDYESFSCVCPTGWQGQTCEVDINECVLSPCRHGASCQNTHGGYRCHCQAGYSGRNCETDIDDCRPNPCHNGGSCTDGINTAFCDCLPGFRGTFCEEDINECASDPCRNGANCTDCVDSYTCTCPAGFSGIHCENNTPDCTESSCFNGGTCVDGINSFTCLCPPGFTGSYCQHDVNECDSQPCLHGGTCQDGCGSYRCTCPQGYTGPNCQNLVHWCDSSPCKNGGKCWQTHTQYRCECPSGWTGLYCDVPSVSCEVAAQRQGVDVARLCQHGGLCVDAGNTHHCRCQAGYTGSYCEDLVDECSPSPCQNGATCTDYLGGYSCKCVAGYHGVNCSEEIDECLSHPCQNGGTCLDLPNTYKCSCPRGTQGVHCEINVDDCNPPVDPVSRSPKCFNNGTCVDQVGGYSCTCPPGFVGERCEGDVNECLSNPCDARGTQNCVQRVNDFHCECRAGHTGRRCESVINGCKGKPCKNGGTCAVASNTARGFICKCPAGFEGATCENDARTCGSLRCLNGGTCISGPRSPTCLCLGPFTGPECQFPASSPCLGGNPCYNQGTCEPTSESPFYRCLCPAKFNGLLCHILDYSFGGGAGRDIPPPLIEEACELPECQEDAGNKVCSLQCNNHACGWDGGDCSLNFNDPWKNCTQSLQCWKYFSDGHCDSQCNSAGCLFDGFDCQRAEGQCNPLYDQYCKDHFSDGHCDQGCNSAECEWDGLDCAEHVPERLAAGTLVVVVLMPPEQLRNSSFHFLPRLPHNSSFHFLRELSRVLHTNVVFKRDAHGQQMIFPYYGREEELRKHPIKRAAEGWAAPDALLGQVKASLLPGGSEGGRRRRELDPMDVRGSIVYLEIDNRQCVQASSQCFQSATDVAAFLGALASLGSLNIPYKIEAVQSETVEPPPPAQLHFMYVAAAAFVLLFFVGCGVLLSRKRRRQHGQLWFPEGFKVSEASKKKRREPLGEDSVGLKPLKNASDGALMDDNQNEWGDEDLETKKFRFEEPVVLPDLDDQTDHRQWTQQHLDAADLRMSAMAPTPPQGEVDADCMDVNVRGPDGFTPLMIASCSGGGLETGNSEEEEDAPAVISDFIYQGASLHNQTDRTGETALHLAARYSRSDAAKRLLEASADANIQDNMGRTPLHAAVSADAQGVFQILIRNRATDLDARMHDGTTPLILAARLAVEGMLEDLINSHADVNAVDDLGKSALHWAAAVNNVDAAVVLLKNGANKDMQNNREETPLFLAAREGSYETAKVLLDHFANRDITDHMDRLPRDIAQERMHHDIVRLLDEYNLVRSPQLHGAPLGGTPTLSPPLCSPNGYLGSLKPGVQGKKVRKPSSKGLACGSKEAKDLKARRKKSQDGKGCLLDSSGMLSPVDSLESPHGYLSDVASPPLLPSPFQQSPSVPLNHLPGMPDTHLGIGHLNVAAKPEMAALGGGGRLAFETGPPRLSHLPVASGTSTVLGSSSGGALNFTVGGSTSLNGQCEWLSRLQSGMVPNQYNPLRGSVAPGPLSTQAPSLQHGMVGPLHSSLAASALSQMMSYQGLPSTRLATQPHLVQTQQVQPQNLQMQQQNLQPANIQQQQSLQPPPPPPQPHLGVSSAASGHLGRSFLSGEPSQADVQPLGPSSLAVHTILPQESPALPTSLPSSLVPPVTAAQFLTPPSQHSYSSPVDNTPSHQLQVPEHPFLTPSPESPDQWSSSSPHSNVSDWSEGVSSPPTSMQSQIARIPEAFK
T2 sequence (P46531 19-2555 L1593P limits assumed): as the sequence (P46531 19-2555) above, with L1575P counted along it

B1: rat 351-mIgG1 (antibody, V domains shown)
VH: EVQLVESGGGLVQPGRSLKVSCLASGFTFSHYGMNWIRQAPGKGLDWVASISRSGSYIRYVDTVKGRFTVSRDIAKNTLYLQMTSLRSEDTALYYCAREGQFGDYFEYWGQGVMVTVSS
VL: DIMLTQSPATLSVTPGERISLSCRASQKISTNLHWYQQKPNESPRILIKYASQTISGIPSRFSGSGSGTDFTLHINTVEPEDFSVYYCQQTNSWPLTFGSGTKLEIK
Firefly/Renilla Luminescence, human Notch1 reporter cells + 5 mM EDTA, 0.01 µg/mL antibody [1]: 304 Firefly/Renilla ratio | Firefly/Renilla Luminescence, human Notch1 reporter cells + 5 mM EDTA, 0.1 µg/mL antibody [1]: 202 Firefly/Renilla ratio | Firefly/Renilla Luminescence, human Notch1 reporter cells + 5 mM EDTA, 1 µg/mL antibody [1]: 84.8 Firefly/Renilla ratio | Firefly/Renilla Luminescence, human Notch1 reporter cells + 5 mM EDTA, 10 µg/mL antibody [1]: 62.1 Firefly/Renilla ratio | Firefly/Renilla Luminescence, human Notch1 reporter cells + 5 mM EDTA, 30 µg/mL antibody [1]: 57 Firefly/Renilla ratio | Normalized Notch1^ICD level, HPB-ALL cells, 0.001 µg/ml antibody [2]: 0.833 relative to untreated | Normalized Notch1^ICD level, HPB-ALL cells, 0.01 µg/ml antibody [2]: 0.886 relative to untreated | Normalized Notch1^ICD level, HPB-ALL cells, 0.1 µg/ml antibody [2]: 0.156 relative to untreated | Normalized Notch1^ICD level, HPB-ALL cells, 1 µg/ml antibody [2]: 0.075 relative to untreated | Normalized Notch1^ICD level, HPB-ALL cells, 10 µg/ml antibody [2]: 0.02 relative to untreated | Normalized Notch1^ICD level, CCRF-CEM cells, 0.001 µg/ml antibody [3]: 0.982 relative to untreated | Normalized Notch1^ICD level, CCRF-CEM cells, 0.01 µg/ml antibody [3]: 1.04 relative to untreated | Normalized Notch1^ICD level, CCRF-CEM cells, 0.1 µg/ml antibody [3]: 0.413 relative to untreated | Normalized Notch1^ICD level, CCRF-CEM cells, 1 µg/ml antibody [3]: 0.043 relative to untreated | Normalized Notch1^ICD level, CCRF-CEM cells, 10 µg/ml antibody [3]: 0.034 relative to untreated | Neutralization activity (murine RGA), IC50 [4]: 0.42 nM | Neutralization activity (Human RGA), IC50 [5]: 0.22 nM | IC50, MTS viability assay of HPB-ALL leukemia cells [6]: 1.27 nM

B2: rat 351(R58Y)-mIgG1 (antibody, V domains shown)
VH: B1 VH with R59Y
VL: B1 VL
IC50, Notch1 signaling inhibition co-culture reporter assay [7]: 0.21 nM | Maximal Inhibition (%), Notch1 signaling inhibition co-culture reporter assay [7]: 95.3% | IC50, MTS viability assay of HPB-ALL leukemia cells [6]: 2.17 nM

B3: rat 351(R58Y/V60A)-mIgG1 (antibody, V domains shown)
VH: B1 VH with R59Y, V61A
VL: B1 VL
IC50, Notch1 signaling inhibition co-culture reporter assay [7]: 0.16 nM | Maximal Inhibition (%), Notch1 signaling inhibition co-culture reporter assay [7]: 95.3% | IC50, MTS viability assay of HPB-ALL leukemia cells [6]: 2.49 nM

B4: humanized 438 VH1.1/VL1.8 (antibody, human IgG1, kappa, V domains shown)
VH: EVQLVESGGGLVQPGGSLRLSCAASGFTFSSFAMAWVRQAPGKGLEWVASISYGGADTYYRDSVKGRFTISRDNAKNSLYLQMNSLRAEDTAVYYCAKDLPYYGYTPFVMDAWGQGTLVTVSS
VL: DIQMTQSPSSLSASVGDRVTITCRASQRINTDLHWYQQKPGKAPKVLIKFASQTISGVPSRFSGSGSGTDFTLTISSLQPEDFATYYCQQSNSWPYTFGQGTKLEIKR
notes: full chains (VH1.1)-hIgG1-3M and (VL1.8)-hkappa
EC50 [8]: 3.2 nM | Kd [9]: 2.1 nM | koff [9]: 0.000449 s⁻¹ | kon [9]: 214000 M⁻¹ s⁻¹ | EC50 [10]: 0.149 nM | Fold difference from rat 438 [11]: 0.48 fold | EC50 [12]: 0.203 nM | EC50 [13]: 1.2 nM | IC50, MTS viability assay of HPB-ALL leukemia cells [6]: 2.26 nM | IC50, mouse Notch1 reporter gene co-culture assay (DLL4-HEK293) [14]: 0.46 nM | IC50, human Notch1 reporter gene co-culture assay (DLL4-HEK293) [15]: 0.17 nM

B5: humanized 438 VH1.0/VL1.8 (antibody, human IgG1, V domains shown)
VH: B4 VH with K98R
VL: DIQMTQSPSSLSASVGDRVTITCRASQRINTDLHWYQQKPGKAPKVLIKFASQTISGVPSRFSGSGSGTDFTLTISSLQPEDFATYYCQQSNSWPYTFGQGTKLEIK
EC50 [8]: 11.6 nM | EC50 [13]: 2.1 nM | IC50, mouse Notch1 reporter gene co-culture assay (DLL4-HEK293) [14]: 1.37 nM | IC50, human Notch1 reporter gene co-culture assay (DLL4-HEK293) [15]: 1.87 nM

B6: humanized 438 VH1.1/VL1.0 (antibody, human IgG1, V domains shown)
VH: B4 VH
VL: B5 VL with V46L, K49Y
EC50 [8]: 2.8 nM | Kd [9]: 21.8 nM | koff [9]: 0.00103 s⁻¹ | kon [9]: 47400 M⁻¹ s⁻¹ | EC50 [10]: 0.144 nM | Fold difference from rat 438 [11]: 5.02 fold | EC50 [12]: 0.296 nM | EC50 [13]: 1.1 nM | IC50, human Notch1 reporter gene co-culture assay (DLL4-HEK293) [15]: 0.46 nM

B7: humanized 438 VH1.1/VL1.3 (antibody, human IgG1, V domains shown)
VH: B4 VH
VL: B5 VL with M4L, V46L, K49Y
EC50 [8]: 2.8 nM | Kd [9]: 1.83 nM | koff [9]: 0.000442 s⁻¹ | kon [9]: 242000 M⁻¹ s⁻¹ | EC50 [10]: 0.0934 nM | Fold difference from rat 438 [11]: 0.42 fold | EC50 [12]: 0.152 nM | EC50 [13]: 2.5 nM | IC50, mouse Notch1 reporter gene co-culture assay (DLL4-HEK293) [14]: 0.62 nM | IC50, human Notch1 reporter gene co-culture assay (DLL4-HEK293) [15]: 0.45 nM

B8: humanized 438 VH1.1/VL1.5 (antibody, human IgG1, V domains shown)
VH: B4 VH
VL: B5 VL with V46L
EC50 [8]: 3.3 nM | EC50 [10]: 0.146 nM | EC50 [12]: 0.219 nM | EC50 [13]: 7 nM | IC50, mouse Notch1 reporter gene co-culture assay (DLL4-HEK293) [14]: 0.5 nM | IC50, human Notch1 reporter gene co-culture assay (DLL4-HEK293) [15]: 0.35 nM
